What all share (assay): pulldown
The target of data set [1] is T1, SRSF3 (Tetraodon nigroviridis) (UniProt H3C295).
T1 sequence: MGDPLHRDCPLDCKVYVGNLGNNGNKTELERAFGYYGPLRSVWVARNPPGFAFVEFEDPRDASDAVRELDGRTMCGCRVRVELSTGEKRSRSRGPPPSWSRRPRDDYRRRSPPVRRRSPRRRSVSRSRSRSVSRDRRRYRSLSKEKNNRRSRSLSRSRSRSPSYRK
The settings on record: 20 nM protein, 1.5 uM RNA pool; 20 mM HEPES pH 7.8, 70 mM KCl, 10 mM NaCl, 10% glycerol, 2 mM DTT, 0.1 ug/uL BSA; 30 min, 4 C.

The target of data set [2] is T2, RBM47 ins277_K (Meleagris gallopavo) (UniProt G1NI04).
T2 sequence: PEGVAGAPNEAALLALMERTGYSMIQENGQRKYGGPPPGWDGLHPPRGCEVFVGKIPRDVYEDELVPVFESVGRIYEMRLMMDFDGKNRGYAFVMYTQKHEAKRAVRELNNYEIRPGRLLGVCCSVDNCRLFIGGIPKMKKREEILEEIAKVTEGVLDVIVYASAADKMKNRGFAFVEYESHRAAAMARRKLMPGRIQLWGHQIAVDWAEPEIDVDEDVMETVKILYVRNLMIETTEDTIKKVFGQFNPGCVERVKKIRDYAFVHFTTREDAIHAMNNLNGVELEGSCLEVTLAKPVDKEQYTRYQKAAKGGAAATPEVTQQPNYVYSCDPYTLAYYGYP
To be noted: 20 nM protein, 1.5 uM RNA pool; 20 mM HEPES pH 7.8, 70 mM KCl, 10 mM NaCl, 10% glycerol, 2 mM DTT, 0.1 ug/uL BSA; 30 min, 4 C.

Data set [3] concerns the target T3, CBG05471 (Caenorhabditis briggsae) (UniProt A8WZY6).
T3 sequence: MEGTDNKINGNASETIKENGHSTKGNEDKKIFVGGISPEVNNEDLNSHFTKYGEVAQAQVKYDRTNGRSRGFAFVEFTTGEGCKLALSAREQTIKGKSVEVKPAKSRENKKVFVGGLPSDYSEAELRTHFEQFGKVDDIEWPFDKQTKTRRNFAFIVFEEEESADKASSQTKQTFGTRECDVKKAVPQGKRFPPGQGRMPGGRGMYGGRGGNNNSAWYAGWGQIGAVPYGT
To be noted: 20 nM protein, 1.5 uM RNA pool; 20 mM HEPES pH 7.8, 70 mM KCl, 10 mM NaCl, 10% glycerol, 2 mM DTT, 0.1 ug/uL BSA; 30 min, 4 C.

The target in data set [4] is T4, Smp_036270 E366G (Schistosoma mansoni) (UniProt A0A3Q0KEI3).
T4 sequence: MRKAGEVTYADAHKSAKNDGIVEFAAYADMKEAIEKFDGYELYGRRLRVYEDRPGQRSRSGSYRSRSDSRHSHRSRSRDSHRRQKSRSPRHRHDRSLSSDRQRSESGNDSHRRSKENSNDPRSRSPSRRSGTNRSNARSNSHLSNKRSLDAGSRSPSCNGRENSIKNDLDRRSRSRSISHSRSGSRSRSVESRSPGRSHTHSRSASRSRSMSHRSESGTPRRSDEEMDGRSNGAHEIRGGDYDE
The settings on record: 20 nM protein, 1.5 uM RNA pool; 20 mM HEPES pH 7.8, 70 mM KCl, 10 mM NaCl, 10% glycerol, 2 mM DTT, 0.1 ug/uL BSA; 30 min, 4 C.

Data set [5] has as its target T5, Y57G11C.36 (Caenorhabditis elegans) (UniProt Q8I4C4).
T5 sequence: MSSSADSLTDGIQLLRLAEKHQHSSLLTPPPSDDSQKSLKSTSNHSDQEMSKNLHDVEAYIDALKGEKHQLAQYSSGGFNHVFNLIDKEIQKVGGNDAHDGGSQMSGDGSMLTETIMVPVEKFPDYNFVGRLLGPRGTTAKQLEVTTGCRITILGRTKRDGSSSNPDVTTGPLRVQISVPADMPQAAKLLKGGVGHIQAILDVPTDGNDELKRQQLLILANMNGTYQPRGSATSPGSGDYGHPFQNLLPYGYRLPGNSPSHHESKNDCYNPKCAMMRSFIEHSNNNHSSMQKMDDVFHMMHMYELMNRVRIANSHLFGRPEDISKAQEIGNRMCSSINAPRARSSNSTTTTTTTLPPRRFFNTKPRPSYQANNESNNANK
To be noted: 20 nM protein, 1.5 uM RNA pool; 20 mM HEPES pH 7.8, 70 mM KCl, 10 mM NaCl, 10% glycerol, 2 mM DTT, 0.1 ug/uL BSA; 30 min, 4 C.

Data set [6] has as its target T6, nop12 (Schizosaccharomyces pombe) (UniProt O13741).
T6 sequence: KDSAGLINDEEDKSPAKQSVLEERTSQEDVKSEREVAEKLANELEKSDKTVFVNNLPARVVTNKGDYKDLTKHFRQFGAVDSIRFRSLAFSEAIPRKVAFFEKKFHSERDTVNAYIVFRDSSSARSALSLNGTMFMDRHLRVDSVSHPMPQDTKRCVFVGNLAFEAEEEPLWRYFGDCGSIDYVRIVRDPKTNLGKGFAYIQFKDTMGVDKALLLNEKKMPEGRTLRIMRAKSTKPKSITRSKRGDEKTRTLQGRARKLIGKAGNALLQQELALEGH
The settings on record: 20 nM protein, 1.5 uM RNA pool; 20 mM HEPES pH 7.8, 70 mM KCl, 10 mM NaCl, 10% glycerol, 2 mM DTT, 0.1 ug/uL BSA; 30 min, 4 C.

In data set [7] the target is T7, MBNL2 (Homo sapiens) (UniProt Q5VZF2).
T7 sequence: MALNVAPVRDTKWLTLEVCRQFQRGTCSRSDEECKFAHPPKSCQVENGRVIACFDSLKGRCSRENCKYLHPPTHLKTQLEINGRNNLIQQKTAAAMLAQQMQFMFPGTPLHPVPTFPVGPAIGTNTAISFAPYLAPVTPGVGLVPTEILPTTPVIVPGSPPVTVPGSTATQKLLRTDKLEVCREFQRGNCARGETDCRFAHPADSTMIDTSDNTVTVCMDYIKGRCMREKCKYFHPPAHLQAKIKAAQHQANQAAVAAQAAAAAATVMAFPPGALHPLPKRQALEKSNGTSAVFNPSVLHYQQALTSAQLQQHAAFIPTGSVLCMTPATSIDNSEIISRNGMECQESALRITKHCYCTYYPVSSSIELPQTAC
The settings on record: 20 nM protein, 1.5 uM RNA pool; 20 mM HEPES pH 7.8, 70 mM KCl, 10 mM NaCl, 10% glycerol, 2 mM DTT, 0.1 ug/uL BSA; 30 min, 4 C.

Data set [8] deals with T8, PK25912.1 V2I;D3L;F4R (Cannabis sativa) (UniProt A0A803Q7P0).
T8 sequence: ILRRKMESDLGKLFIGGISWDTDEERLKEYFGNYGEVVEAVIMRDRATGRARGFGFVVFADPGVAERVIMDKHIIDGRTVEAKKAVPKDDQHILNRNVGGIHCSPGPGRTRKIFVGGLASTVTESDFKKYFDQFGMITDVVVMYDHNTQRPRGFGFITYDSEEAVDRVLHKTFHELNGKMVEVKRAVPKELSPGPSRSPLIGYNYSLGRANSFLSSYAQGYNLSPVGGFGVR
The settings on record: 20 nM protein, 1.5 uM RNA pool; 20 mM HEPES pH 7.8, 70 mM KCl, 10 mM NaCl, 10% glycerol, 2 mM DTT, 0.1 ug/uL BSA; 30 min, 4 C.

The target in data set [9] is HNRNPA2B1 (Homo sapiens) (UniProt P22626). The settings on record: 20 nM protein, 1.5 uM RNA pool; 20 mM HEPES pH 7.8, 70 mM KCl, 10 mM NaCl, 10% glycerol, 2 mM DTT, 0.1 ug/uL BSA; 30 min, 4 C (protocol of this paper; not …); cited from earlier work.
Sequence of HNRNPA2B1 (Homo sapiens) (P22626 1-233): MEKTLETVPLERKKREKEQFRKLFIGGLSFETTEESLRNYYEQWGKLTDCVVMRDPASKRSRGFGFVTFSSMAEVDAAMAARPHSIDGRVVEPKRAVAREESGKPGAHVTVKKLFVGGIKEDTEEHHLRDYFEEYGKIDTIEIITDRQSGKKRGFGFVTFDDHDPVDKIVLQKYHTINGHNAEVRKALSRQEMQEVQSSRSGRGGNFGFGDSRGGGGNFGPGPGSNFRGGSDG

In turn, AACAACG [RNAcompete motif RNCMPT00419] returned a binding signal (z-score (mean of top ten 7-mers)) in [1] of 7.35. In turn, AGAUGA [RNAcompete motif RNCMPT00394] had a binding signal (z-score (mean of top ten 7-mers)) in data set [2] of 8.98. In the case of AGUAA [RNAcompete motif RNCMPT00422], the binding signal (z-score (mean of top ten 7-mers)) in data set [3] is 9.16. In turn, CGGAGG [RNAcompete motif RNCMPT00417] yielded a binding signal (z-score (mean of top ten 7-mers)) in data set [4] of 13.5.

Consider CUACUAG [RNAcompete motif RNCMPT00423], for which the binding signal (z-score (mean of top ten 7-mers)) in data set [5] came to 15.3. Consider GAACG [RNAcompete motif RNCMPT00412], for which the binding signal (z-score (mean of top ten 7-mers)) in data set [6] amounted to 25.9. As to GCUUGC [RNAcompete motif RNCMPT00401], in data set [7], the binding signal (z-score (mean of top ten 7-mers)) was found to be 10.7. In data set [8], UAGGAA [RNAcompete motif RNCMPT00430] showed a binding signal (z-score (mean of top ten 7-mers)) of 8.55. As to UAGGGA [RNAcompete motif RNCMPT00024], the binding signal (z-score (mean of top ten 7-mers)) in data set [9] is 8.86.
